Source: patent US20180344736A1 (ROCHESTER, published 2018)

Columns and labels:
Parkin (endogenous) = biological target: T1, Parkin (endogenous) (human, UniProt O60260 1-465); assay: not told (data not shown)
T1 construct: Endogenous protein immunoprecipitated from cell lysates; also called Endogenous Parkin

Cdh1 = biological target: T2, Cdh1 (human, UniProt Q9UM11 1-496, limits assumed); assay: IP-immunoblot of transfected Parkin domain constructs, mitotic cells (FIG. 10A)
T2 construct: Protein in cell lysate, co-immunoprecipitation

Cdc20 = biological target: T3, Cdc20 (human, UniProt Q12834 1-499); assay: IP-immunoblot of transfected cells with or without nocodazole (FIG. 9K)
T3 construct: Protein in cell lysate, co-immunoprecipitation
T3 sequence (Q12834 whole entry): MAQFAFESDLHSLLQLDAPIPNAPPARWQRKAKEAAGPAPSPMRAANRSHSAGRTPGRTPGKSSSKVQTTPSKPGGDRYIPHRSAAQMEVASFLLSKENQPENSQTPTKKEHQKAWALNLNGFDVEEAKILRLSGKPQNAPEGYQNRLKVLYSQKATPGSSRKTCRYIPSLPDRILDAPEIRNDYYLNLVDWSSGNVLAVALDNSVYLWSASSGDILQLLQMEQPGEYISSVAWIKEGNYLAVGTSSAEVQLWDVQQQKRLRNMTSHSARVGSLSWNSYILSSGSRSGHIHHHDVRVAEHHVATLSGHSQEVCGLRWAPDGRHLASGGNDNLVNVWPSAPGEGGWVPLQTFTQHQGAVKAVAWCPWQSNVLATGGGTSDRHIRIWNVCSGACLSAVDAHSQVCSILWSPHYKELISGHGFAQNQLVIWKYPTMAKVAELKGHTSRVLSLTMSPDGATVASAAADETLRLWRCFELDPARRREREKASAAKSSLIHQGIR

T2 sequence (Q9UM11 whole entry, the tested form may be a part): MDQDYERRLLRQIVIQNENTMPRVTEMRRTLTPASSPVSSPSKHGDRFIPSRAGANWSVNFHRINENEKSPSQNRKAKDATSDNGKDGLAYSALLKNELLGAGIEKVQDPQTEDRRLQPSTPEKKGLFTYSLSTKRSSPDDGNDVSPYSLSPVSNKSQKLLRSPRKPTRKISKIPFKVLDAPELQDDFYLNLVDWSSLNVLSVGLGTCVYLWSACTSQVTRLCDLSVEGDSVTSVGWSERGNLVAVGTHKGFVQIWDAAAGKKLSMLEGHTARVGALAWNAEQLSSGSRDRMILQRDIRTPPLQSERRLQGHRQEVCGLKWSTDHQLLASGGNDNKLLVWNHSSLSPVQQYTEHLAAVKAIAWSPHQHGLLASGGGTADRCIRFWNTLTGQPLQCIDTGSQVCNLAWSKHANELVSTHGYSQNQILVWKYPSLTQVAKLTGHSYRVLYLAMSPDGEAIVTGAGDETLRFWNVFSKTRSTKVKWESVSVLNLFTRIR

B1: UbcH10 (enzyme, UniProt O00762 2-179, looked up)
chain: ASQNRDPAATSVAAARKGAEPSGGAARGPVGKRLQQELMTLMMSGDKGISAFPESDNLFKWVGTIHGAAGTVYEDLRYKLSLEFPSGYPYNAPTVKFLTPCYHPNVDTQGNICLDILKEKWSALYDVRTILLSIQSLLGEPNIDSPLNTHAAELWKNPTAFKKYLQETYSKQVTSQEP
notes: also called the E2 for APC/C in mitosis
B1: no binding (Parkin (endogenous)).

B2: Parkin RING1 domain (other, UniProt O60260 238-293, looked up, not shown: small tags and cut ends)
chain: CITCTDVRSPVLVFQCNSRHVICLDCFHLYCVTRLNDRQFVHDPQLGYSLPCVAGC
notes: domain: RING1
B2: no binding (Cdh1).

B3: Parkin S378A (enzyme, UniProt O60260 1-465, looked up, not shown: large carriers)
chain: MIVFVRFNSSHGFPVEVDSDTSIFQLKEVVAKRQGVPADQLRVIFAGKELRNDWTVQNCDLDQQSIVHIVQRPWRKGQEMNATGGDDPRNAAGGCEREPQSLTRVDLSSSVLPGDSVGLAVILHTDSRKDSPPAGSPAGRSIYNSFYVYCKGPCQRVQPGKLRVQCSTCRQATLTLTQGPSCWDDVLIPNRMSGECQSPHCPGTSAEFFFKCGAHPTSDKETSVALHLIATNSRNITCITCTDVRSPVLVFQCNSRHVICLDCFHLYCVTRLNDRQFVHDPQLGYSLPCVAGCPNSLIKELHHFRILGEEQYNRYQQYGAEECVLQMGGVLCPRPGCGAGLLPEPDQRKVTCEGGNGLGCGFAFCRECKEAYHEGECAAVFEASGTTTQAYRVDERAAEQARWEAASKETIKKTTKPCPRCHVPVEKNGGCMHMKCPQPQCRLEWCWNCGCEWNRVCMGDHWFDV
notes: Transfected construct, IP-immunoblot with or without nocodazole
B3: no binding (Cdc20).
